Experimental data as given in US20050074758A1.

Key:
[1] = molecular target: prokineticin receptor(s) of guinea pig ileum (ileal membranes; ileal longitudinal smooth muscle) (guinea pig); assay: displacement of 125I-prokineticin 1 (20 pM) from guinea pig ileal membranes, two-site model, high-affinity site
[2] = molecular target: prokineticin receptor(s) of guinea pig ileum (ileal membranes; ileal longitudinal smooth muscle) (guinea pig); assay: displacement of 125I-prokineticin 1 (20 pM) from guinea pig ileal membranes, two-site model, low-affinity site
[3] = molecular target: prokineticin receptor expressed endogenously on M2A7 melanoma cells (ATCC CRL-2500); assay: cell-based or functional assay
[4] = molecular target: prokineticin receptor(s) of guinea pig ileum (ileal membranes; ileal longitudinal smooth muscle) (guinea pig); assay: cell-based or functional assay
[5] = molecular target: prokineticin receptor(s) of guinea pig ileum (ileal membranes; ileal longitudinal smooth muscle) (guinea pig); assay: competition radioligand binding on guinea pig ileal membranes, filtration; displaced tracer 125I-prokineticin 1 (20 pM)
[6] = molecular target: prokineticin receptor(s) of guinea pig ileum (ileal membranes; ileal longitudinal smooth muscle) (guinea pig); assay: saturation binding of 125I-prokineticin 1 to guinea pig ileal membranes, Scatchard analysis, two-site model, high-affinity site
[7] = molecular target: prokineticin receptor(s) of guinea pig ileum (ileal membranes; ileal longitudinal smooth muscle) (guinea pig); assay: saturation binding of 125I-prokineticin 1 to guinea pig ileal membranes, Scatchard analysis, two-site model, low-affinity site
[8] = molecular target: prokineticin receptor(s) of guinea pig ileum (ileal membranes; ileal longitudinal smooth muscle) (guinea pig); assay: saturation binding of 125I-prokineticin 1 to guinea pig ileal membranes, two-site model, high-affinity site
[9] = molecular target: prokineticin receptor(s) of guinea pig ileum (ileal membranes; ileal longitudinal smooth muscle) (guinea pig); assay: saturation binding of 125I-prokineticin 1 to guinea pig ileal membranes, two-site model, low-affinity site
[10] = molecular target: prokineticin receptor(s) of guinea pig ileum (ileal membranes; ileal longitudinal smooth muscle) (guinea pig); assay: displacement of 125I-prokineticin 1 (20 pM) from guinea pig ileal membranes, low-affinity site
[11] = molecular target: prokineticin receptor(s) of guinea pig ileum (ileal membranes; ileal longitudinal smooth muscle) (guinea pig); assay: displacement of 125I-prokineticin 1 (20 pM) from guinea pig ileal membranes, high-affinity site

B1: recombinant refolded human prokineticin 1 (unlabeled), 6×His-tagged (ligand)
chain: AVITGACERDVQCGAGTCCAISLWLRGLRMCTPLGREGEECHPGSHKVPFFRKRKHHTCPCLPNLLCSRFPDGRYRCSMDLKNINFHHHHHH
Ki [1]: 0.008 nM
Ki [2]: 1.5 nM
EC50 of calcium mobilization in M2A7 melanoma cells (FLIPR) [3]: 12 nM
ED50 of contraction of guinea-pig ileum longitudinal muscle [4]: 0.46 nM
time constant to midway contraction of ileal strips [4]: 15 min
IC50 (read off the curve) [5]: 5 nM

B2: 125I-prokineticin 1 (iodinated recombinant human prokineticin 1) (ligand)
chain: B1 chain
modifications: 125I label by the iodogen method; iodinated residue(s) not stated
Kd [6]: 0.005 nM
Kd [7]: 0.227 nM
Bmax (fmol/mg of protein) [8]: 7.8
Bmax (fmol/mg of protein) [9]: 26.4

B3: chimeric prokineticin 12 (exons 1 and 2 of prokineticin 1, exon 3 of prokineticin 2) (ligand)
chain: AVITGACERDVQCGAGTCCAISLWLRGLRMCTPLGREGEECHPGSHKVPFFGRRMHHTCPCLPGLACLRTSFNRFICLAQK
time constant to midway contraction of ileal strips [4]: 40 min

B4: recombinant refolded human prokineticin 2 (unlabeled), 6×His-tagged (ligand)
chain: AVITGACDKDSQCGGGMCCAVSIWVKSIRICTPMGKLGDSCHPLTRKVPFFGRRMHHTCPCLPGLACLRTSFNRFICLAQKHHHHHH
Ki [10]: 1.22 nM
Ki [11]: 0.0042 nM
EC50 of calcium mobilization in M2A7 melanoma cells (FLIPR) [3]: 21 nM
ED50 of contraction of guinea-pig ileum longitudinal muscle [4]: 0.9 nM
time constant to midway contraction of ileal strips [4]: 15 min
IC50 (read off the curve) [5]: 4 nM

B5: chimeric prokineticin 21 (exons 1 and 2 of prokineticin 2, exon 3 of prokineticin 1) (ligand)
chain: AVITGACDKDSQCGGGMCCAVSIWVKSIRICTPMGKLGDSCHPLTRKVPFFRKRKHHTCPCLPNLLCSRFPDGRYRCSMDLKNINF
EC50 of ileal contraction, fold against prokineticin 1 or prokineticin 2 [4]: 8 fold
time constant to midway contraction of ileal strips [4]: 40 min
